The text below walks through data of patent US20120322975A1.

Bounds are passed on as bounds.

In assay [1] the target is human factor D (purified from human serum) (human) (UniProt P00746). Description: cell-based or functional assay.
Assay [2] addresses dog factor D (in dog serum) (dog). Description: cell-based or functional assay. Particulars: scale: times less effective than on human factor D.

Chain of UniProt P00746 (P00746 26-253 N180D): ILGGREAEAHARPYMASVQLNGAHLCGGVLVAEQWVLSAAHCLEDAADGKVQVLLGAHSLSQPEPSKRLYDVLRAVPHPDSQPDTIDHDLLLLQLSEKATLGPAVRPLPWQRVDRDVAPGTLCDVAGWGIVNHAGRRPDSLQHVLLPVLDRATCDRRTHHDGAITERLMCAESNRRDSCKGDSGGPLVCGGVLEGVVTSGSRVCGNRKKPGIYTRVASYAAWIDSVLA

With MAb 166-32 (antibody), in assay [1], the alternative pathway hemolytic activity of plasma from extracorporeal circuits (18 µg/ml antibody in human whole blood) (molar ratio (MAb:factor D)) stood at 1.5 and the inhibition of factor D dependent alternative pathway hemolysis of unsensitized rabbit RBCs (factor D depleted serum with supplemented factor D) was 0.3 µg/mL. For the same substance, the neutralization of dog factor D in hemolytic assays, compared to human factor D in assay [2] was > 10.
